Measurements: article doi:10.1101/2024.07.30.605912 (bioRxiv, 2024)

Biological target: the molecule itself
Assay: cryo-EM structure

B1: Salmonella typhimurium ArnC (undecaprenyl-phosphate 4-deoxy-4-formamido-L-arabinose transferase) (enzyme)
chain: MFDAAPIKKVSVVIPVYNEQESLPELIRRTTTACESLGKAWEILLIDDGSSDSSAELMVKASQEADSHIISILLNRNYGQHAAIMAGFSHVSGDLIITLDADLQNPPEEIPRLVAKADEGFDVVGTVRQNRQDSLFRKSASKIINLLIQRTTGKAMGDYGCMLRAYRRPIIDTMLRCHERSTFIPILANIFARRATEIPVHHAEREFGDSKYSFMRLINLMYDLVTCLTTTPLRLLSLLGSVIAIGGFSLSVLLIVLRLALGPQWAAEGVFMLFAVLFTFIGAQFIGMGLLGEYIGRIYNDVRARPRYFVQQVIYPESTPFTEESHQ
stoichiometry N: 4
